# Measurements from patent publication US20070172423A1, “Composition and method for modulating vasculogenesis for angiogenesis” (priority 1998, published 2007).
# Columns and labels:
# [1] = target: PDGF alpha receptors (Homo sapiens, UniProt P16234); assay: Competition with 125I-PDGF-BB for binding to PAE-1 cells expressing PDGF alpha-receptor; parameters: expressed in transfected cells; settings: 5 ng/ml 125I-PDGF-BB tracer, on ice 90 minutes
# Experimental: Next, full length and truncated PDGF-C were tested for their capacity to bind to human PDGF receptors alpha and beta by analyzing their abilities to compete with PDGF-BB for binding to PDGF receptors. The binding experiments were performed on porcine aortic endothelial-1 (PAE-1) cells stably expressing the human PDGF receptors alpha and beta (Eriksson et al., EMBO J, 1992, 11, 543-550). Binding experiments were performed essentially as in Heldin et al. (EMBO J, 1988, 7:1387-1393). Different concentrations of human full-length and truncated PDGF-C, or human PDGF-BB were mixed with 5 ng/ml of ^125I-PDGF-BB in binding buffer (PBS containing 1 mg/ml of bovine serum albumin). Aliquots were incubated with the receptor expressing PAE-1 cells plated in 24-well culture dishes on ice for 90 minutes. After three washes with binding buffer, cell-bound 125]-PDGF-BB was extracted by lysis of cells in 20 mM Tris-HCl, pH 7.5, 10% glycerol, 1% Triton X-100. The amount of cell bound radioactivity was determined in a gamma-counter. A standard curve for the binding of ^125I-labeled PDGF BB homodimers to PAE-1 cells expressing PDGF alpha-receptor is shown in FIG. 18.
# [2] = test system: HMVEC; assay: HMVEC proliferation assay; type: cell-based, human; settings: 50 ng/ml, 7 days
# Experimental: (§1) Cell migration assays were performed on growth arrested confluent HMVEC, BAEC or hSMC cells. Cell monolayers were wounded with a rubber policeman and washed with serum-free medium. Dishes were then incubated for 20 hours in serum-free medium containing VEGF165, PDGF-AA, (R&D Systems, Minneapolis USA) or PDGF-CC. Each assay included two dishes per condition and was repeated three times independently. Cells were photographed at 40× magnification, and migration percentage corresponding to the ratio between area of the cells and the total area of the wound (Biocom visiol@b 2000 version 4.52, San Diego). For HMVEC proliferation assay, cells were seeded in 96-well plates (5 wells per condition), and incubated with VEGF, PDGF-AA, or PDGF-CC (50 ng/ml) after serum starvation. After 7 days, viable cells were counted using the cell Titer-glo luminescent cell viability assay. For NIH-3T3 and hSMC proliferation assay, cells cultured in 96-well plates were serum-starved overnight, followed by treatment with growth factors at different concentrations. Two days later, cell numbers were counted and proliferation percentage calculated, using cells cultured in medium containing 10% serum as control. Aortic ring assay was performed as described 51. […] Aortic rings were analysed at day 9 of culturing. […]
# [3] = test system: hSMC; assay: Cell migration assay, hSMC; type: cell-based, human; settings: wounded monolayer, 20 hours
# Experimental: as §1, with “For HMVEC proliferation assay, cells were seeded in 96-well plates (5 wells per condition), and incubated with VEGF, PDGF-AA, or PDGF-CC (50 ng/ml) after serum starvation.” left out, “For NIH-3T3 and hSMC proliferation assay, cells cultured in 96-well plates were serum-starved overnight, followed by treatment with growth factors at different concentrations.” left out, “control.” for “control. Aortic ring assay was performed as described 51.”
# The mitogenic and chemotactic effect of PDGF-CC was then tested on SMCs and perivascular fibroblast cells, and the effect of PDGF-CC was compared to that of VEGF and PDGF-AA in both cultured cells and the aortic ring assay (Blacher et al., Angiogenesis, 2001 4:133-42). […] In the aortic ring assay, we quantified the growth and emigration of perivascular fibroblasts from the intact vessel using computer-assisted image analysis after treatment with VEGF and different PDGFs at different concentrations. […]
# [4] = target: PDGF beta receptors (Homo sapiens, UniProt P09619); assay: Binding of radiolabeled truncated PDGF-C to PAE-1 cells expressing PDGF beta receptors; parameters: expressed in transfected cells; host or cells: porcine aortic endothelial (PAE-1) cells; settings: 125I-labeled protein, on ice 90 minutes
# Experimental: To assess the interactions between truncated PDGF-C and the PDGF alpha and beta receptors, truncated PDGF-C was tested for its capacity to bind to porcine aortic endothelial-1 (PAE-1) cells expressing PDGF alpha or beta receptors, respectively (Eriksson et al., EMBO J, 1992 11:543-550). The binding experiments were performed essentially as described in Heldin et al. (EMBO J, 1988 7:1387 1393). Five micrograms of truncated PDGF-C protein in ten microliters of sodium borate buffer was radiolabeled using the Bolton-Hunter reagent (Amersham) to a specific activity of 4×10^5 cpm/ng. Different concentrations of radiolabeled truncated PDGF-C, with or without added unlabeled protein, in binding buffer (PBS containing 1 mg/ml of bovine serum albumin) was added to the receptor expressing PAE-1 cells plated in 24-well culture dishes on ice for 90 minutes. After three washes with binding buffer, cell-bound ^125I-labeled PDGF-C was extracted by lysis of cells in 20 mM Tris-HCl, pH 7.5, 10% glycerol, 1% Triton X-100. The amount of cell-bound radioactivity was determined in a gamma-counter. Non-specific binding was estimated by including a 100-fold molar excess of truncated PDGF-C in some experiments. […] The binding was specific as radiolabeled PDGF-C was quantitatively displaced by a 100-fold molar excess of unlabeled protein.
# Chain of PDGF beta receptors (P09619 33-1106): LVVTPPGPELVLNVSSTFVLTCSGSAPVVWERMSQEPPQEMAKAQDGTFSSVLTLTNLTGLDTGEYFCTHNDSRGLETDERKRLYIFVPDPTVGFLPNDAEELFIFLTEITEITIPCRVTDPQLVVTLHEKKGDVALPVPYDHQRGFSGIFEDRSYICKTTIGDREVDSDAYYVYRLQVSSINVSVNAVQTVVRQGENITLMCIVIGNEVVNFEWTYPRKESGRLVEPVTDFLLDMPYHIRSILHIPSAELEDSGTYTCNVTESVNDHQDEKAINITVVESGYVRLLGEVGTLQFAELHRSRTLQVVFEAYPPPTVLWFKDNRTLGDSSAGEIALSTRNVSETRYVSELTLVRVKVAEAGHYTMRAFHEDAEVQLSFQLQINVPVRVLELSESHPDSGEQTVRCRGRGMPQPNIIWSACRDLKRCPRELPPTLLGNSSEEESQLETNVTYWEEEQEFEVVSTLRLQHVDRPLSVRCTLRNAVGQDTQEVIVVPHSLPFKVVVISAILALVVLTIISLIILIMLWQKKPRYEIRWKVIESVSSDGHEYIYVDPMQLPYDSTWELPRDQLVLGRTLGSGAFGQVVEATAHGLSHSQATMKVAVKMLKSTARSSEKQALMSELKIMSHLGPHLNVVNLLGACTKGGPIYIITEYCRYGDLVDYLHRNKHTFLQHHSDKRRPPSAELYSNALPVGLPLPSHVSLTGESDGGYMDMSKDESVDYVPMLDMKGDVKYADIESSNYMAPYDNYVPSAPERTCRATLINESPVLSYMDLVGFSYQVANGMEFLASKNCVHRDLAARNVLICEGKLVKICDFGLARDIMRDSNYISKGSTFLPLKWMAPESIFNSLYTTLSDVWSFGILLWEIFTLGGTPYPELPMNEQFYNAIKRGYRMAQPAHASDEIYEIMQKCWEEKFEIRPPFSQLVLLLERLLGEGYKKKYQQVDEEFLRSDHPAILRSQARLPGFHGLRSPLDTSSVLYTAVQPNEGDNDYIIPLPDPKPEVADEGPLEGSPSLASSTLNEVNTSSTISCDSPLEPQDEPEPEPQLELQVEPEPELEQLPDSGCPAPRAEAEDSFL
# Chain of PDGF alpha receptors (P16234 24-1089): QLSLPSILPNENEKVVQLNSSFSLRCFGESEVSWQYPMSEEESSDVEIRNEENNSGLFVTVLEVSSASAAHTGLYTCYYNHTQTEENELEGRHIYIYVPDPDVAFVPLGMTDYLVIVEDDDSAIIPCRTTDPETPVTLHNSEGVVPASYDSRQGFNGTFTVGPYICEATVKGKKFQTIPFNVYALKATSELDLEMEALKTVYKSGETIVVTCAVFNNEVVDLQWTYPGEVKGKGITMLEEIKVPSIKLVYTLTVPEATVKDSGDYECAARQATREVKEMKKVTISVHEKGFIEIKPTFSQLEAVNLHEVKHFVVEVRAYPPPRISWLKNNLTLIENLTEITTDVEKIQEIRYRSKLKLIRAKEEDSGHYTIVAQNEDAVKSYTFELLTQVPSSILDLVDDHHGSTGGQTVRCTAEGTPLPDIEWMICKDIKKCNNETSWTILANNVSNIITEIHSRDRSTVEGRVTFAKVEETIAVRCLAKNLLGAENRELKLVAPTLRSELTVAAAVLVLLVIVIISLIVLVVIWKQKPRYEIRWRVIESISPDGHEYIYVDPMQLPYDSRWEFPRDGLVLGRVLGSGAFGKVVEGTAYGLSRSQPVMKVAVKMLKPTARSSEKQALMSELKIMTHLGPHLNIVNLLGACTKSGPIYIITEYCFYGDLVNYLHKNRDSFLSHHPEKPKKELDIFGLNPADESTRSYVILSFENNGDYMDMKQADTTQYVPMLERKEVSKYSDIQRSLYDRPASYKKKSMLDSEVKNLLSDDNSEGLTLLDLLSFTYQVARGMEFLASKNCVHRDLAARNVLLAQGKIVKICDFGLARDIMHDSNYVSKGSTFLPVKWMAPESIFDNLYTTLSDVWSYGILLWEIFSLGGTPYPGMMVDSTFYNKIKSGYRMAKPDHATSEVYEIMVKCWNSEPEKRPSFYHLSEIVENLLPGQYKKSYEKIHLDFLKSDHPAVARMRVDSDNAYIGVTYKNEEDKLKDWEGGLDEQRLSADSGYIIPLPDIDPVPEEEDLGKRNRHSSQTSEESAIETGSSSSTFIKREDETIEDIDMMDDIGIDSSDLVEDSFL
molecule,measurement,setting,value
"PDGF-CC: recombinant human PDGF-CC core domain homodimer, residues 230-345 of full-length PDGF-C (SEQ ID NO:40), produced in baculovirus infected insect cells (protein, homodimer; PDGF-C core domain) GRKSRVVDLNLLTEEVRLYSCTPRNFSVSIREELKRTDTIFWPGCLLVKRCGGNCACCLHNCNECQCVPSKVTKKYHEVLQLRPKTGVRGLHKSLTDVALEHHEECDCVCRGSTGG",competition for binding to the PDGF alpha-receptor,[1],efficiently competed
same,EC proliferation,[2],no effect
same,hSMC migration,[3],stimulated
same,binding to beta receptor expressing cells,[4],not
